{"source": "patent US20240101716A1", "binders": {"B1": {"name": "248G3F6 (antibody, V domains shown)", "VH": "EVQLQQSGAELVKPGASVKLSCTASGFNFEDTYMHWVKQRPDQGLEWIGRIDPADGDTKYNPKFQDKATITVDTSSNTAYLQLSSLTSEDTAVYYCVRGNYVNWGQGTTLTVSS", "VL": "QIVLIQSPAIMSASPGERVTLTCRASSSVSSSYLYWYQQKPGSSPKLWIYSTSNLASGVPARFSGSGSGTSYSLTISSMEAEDAASYFCHQWYSYPRTFGGGTKLEIK"}, "B2": {"name": "300A6A6 (antibody, V domains shown)", "VH": "QVQLQQSGTELVKPGSSVKISCKASGYTFTSNYIHWIRQQPGNGLEWIGWIYPGDGDTNYNQKFNGKATLTADKSSSTAYMQLSSLTSEDYAVYFCAINYGGIWFAYWGQGTLVTVSS", "VL": "DIQMTQSPSSMSASLGDRVTITCQASQDIGNKLIWFQQKPGKSPRLMIHYVTNLPGGVPLRFSGSRSGSDYSLTISSLESEDMADYYCLQYKQNPLTFGSGTKLEIK"}, "B3": {"name": "HSP210-03-hz51 (antibody, V domains shown)", "VH": "QVQLVQSGAEVKKPGSSVKVSCKASGYTFTSNYIHWVRQAPGQGLEWMGWIYPGDADTNYNQKFNGRVTLTADKSTSTAYMELSSLRSEDTAVYYCAINYGGIWFAYWGQGTLVTVSS", "VL": "DIQMTQSPSSLSASVGDRVTITCQASQDIGNKLIWYQQKPGKAPKLLIYYVTNLPGGVPSRFSGSGSGTDFTLTISSLQPEDFATYYCLQYKQNPLTFGQGTKLEIK"}, "B4": {"name": "HSP210-02-hz52 (antibody, V domains shown)", "VH": "QVQLVQSGAEVKKPGASVKVSCKASGFNFEDTYMHWVRQAPGQGLEWMGRIDPADADTKYNPKFQDRVTITVDTSTNTAYMELSSLRSEDTAVYYCVRGNYVNWGQGTTVTVSS", "VL": "EIVLTQSPGTLSLSPGERATLSCRASSSVSSSYLYWYQQKPGQAPRLLIYSTSNLASGIPDRFSGSGSGTDYTLTISRLEPEDAAVYFCHQWYSYPRTFGGGTKVEIK"}, "B5": {"name": "HSP210-02-Chi (antibody, V domains shown)", "VH": "B1 VH", "VL": "B1 VL"}, "B6": {"name": "HSP210-02-hz22 (antibody, V domains shown)", "VH": "B4 VH with A56G, I70M", "VL": "B4 VL"}, "B7": {"name": "HSP210-02-hz32 (antibody, V domains shown)", "VH": "B4 VH with A56G", "VL": "B4 VL"}, "B8": {"name": "HSP210-02-hz42 (antibody, V domains shown)", "VH": "B4 VH with D55E, A56G", "VL": "B4 VL"}, "B9": {"name": "HSP210-03-Chi (antibody, V domains shown)", "VH": "B2 VH", "VL": "B2 VL"}, "B10": {"name": "HSP210-03-hz22 (antibody, V domains shown)", "VH": "B3 VH with A56G, L70I", "VL": "B3 VL with Y36F, Y49H, G66R, T69S, F71Y"}, "B11": {"name": "HSP210-03-hz32 (antibody, V domains shown)", "VH": "B3 VH with A56G", "VL": "B3 VL with Y36F, Y49H, G66R, T69S, F71Y"}, "B12": {"name": "HSP210-03-hz42 (antibody, V domains shown)", "VH": "B3 VH with D55E, A56G", "VL": "B3 VL with Y36F, Y49H, G66R, T69S, F71Y"}, "B13": {"name": "HSP210-03-hz52 (antibody, V domains shown)", "VH": "B3 VH", "VL": "B3 VL with Y36F, Y49H, G66R, T69S, F71Y"}, "B14": {"name": "HSP210-01-hz22 (antibody, V domains shown)", "VH": "QVQLQESGPGLVKPSETLSLTCTFSGFSLNTYDIGMGWIRQPPGKGLEWIGHIWWNDREYYNSALQSRVTISKDTSKTQVSLKLSSVTAADTAVYYCVRIDYFGSGQAWFTYWGQGTLVTVSS", "VL": "EIVLTQSPGTLSLSPGERATLSCSSSSTISSTYLHWYQQKPGQAPRLLISGTSNLASGIPDRFSGSGSGTDYTLTISRLEPEDVAVYYCQQGSRIPFTFGQGTKLEIK"}, "B15": {"name": "HSP210-01-hz32 (antibody, V domains shown)", "VH": "B14 VH with G51A", "VL": "B14 VL"}, "B16": {"name": "HSP210-01-hz52 (antibody, V domains shown)", "VH": "B14 VH with G51A, N62S", "VL": "B14 VL"}, "B17": {"name": "HSP210-01-hz61 (antibody, V domains shown)", "VH": "B14 VH with G51A, S63P", "VL": "B14 VL with S50Y, Y72F, V84F"}, "B18": {"name": "HSP210-01-hz62 (antibody, V domains shown)", "VH": "B14 VH with G51A, S63P", "VL": "B14 VL"}}, "key": {"[1]": {"target": "recombinant human SIRPα variant 1 protein (human) (UniProt P78324)", "sequence (P78324 31-370, change not shown)": "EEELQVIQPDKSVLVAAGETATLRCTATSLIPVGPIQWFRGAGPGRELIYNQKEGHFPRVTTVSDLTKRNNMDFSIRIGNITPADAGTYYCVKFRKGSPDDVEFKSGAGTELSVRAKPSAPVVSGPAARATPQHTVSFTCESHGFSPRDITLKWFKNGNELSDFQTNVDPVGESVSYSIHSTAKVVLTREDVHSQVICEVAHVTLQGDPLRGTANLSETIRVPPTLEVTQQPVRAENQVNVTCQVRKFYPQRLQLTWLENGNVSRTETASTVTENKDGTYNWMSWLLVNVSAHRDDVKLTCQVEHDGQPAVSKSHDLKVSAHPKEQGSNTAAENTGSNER", "assay": "SPR Biacore 8K, antibody captured, antigen analyte"}, "[2]": {"target": "recombinant human SIRPα variant 1 protein (human) (UniProt P78324)", "assay": "ELISA on coated recombinant human SIRPα v1, OD450"}, "SIRPα-His protein [3]": {"target": "SIRPα-His protein (UniProt P78324)", "assay": "competition ELISA: SIRPα-His binding to coated CD47-Fc in the presence of the antibody, OD450"}, "[4]": {"target": "SIRP-α expressed on cells (UniProt P78324)", "assay": "FACS binding test on SIRP-a cell line, Geom.Mean; unit from the axis log(nm)"}, "[5]": {"target": "SIRPα (blocking assay of Example 11) (UniProt P78324)", "assay": "blocking of the CD47/SIRPα interaction, ratio 665 nm/615 nm against antibody concentration"}, "SIRPα-His protein [6]": {"target": "SIRPα-His protein (UniProt P78324)", "assay": "competition ELISA, SIRPα-His binding to coated CD47-Fc"}}, "note": "Residue numbers refer to the chain shown, from its start.", "data": [{"binder": "B1", "values": [{"measurement": "Kd", "setting": "[1]", "result": 2, "unit": "nM"}, {"measurement": "koff", "setting": "[1]", "result": 0.000374, "unit": "s⁻¹"}, {"measurement": "kon", "setting": "[1]", "result": 187000, "unit": "M⁻¹ s⁻¹"}, {"measurement": "EC50", "setting": "[2]", "result": 0.0182, "unit": "µg/mL"}, {"measurement": "IC50", "setting": "SIRPα-His protein [3]", "result": 0.356, "unit": "µg/mL"}]}, {"binder": "B2", "values": [{"measurement": "Kd", "setting": "[1]", "result": 1.13, "unit": "nM"}, {"measurement": "koff", "setting": "[1]", "result": 0.000148, "unit": "s⁻¹"}, {"measurement": "kon", "setting": "[1]", "result": 131000, "unit": "M⁻¹ s⁻¹"}, {"measurement": "EC50", "setting": "[2]", "result": 0.0121, "unit": "µg/mL"}, {"measurement": "IC50", "setting": "SIRPα-His protein [3]", "result": 0.383, "unit": "µg/mL"}]}, {"binder": "B3", "values": [{"measurement": "Kd", "setting": "[1]", "result": 0.999, "unit": "nM"}, {"measurement": "koff", "setting": "[1]", "result": 0.000804, "unit": "s⁻¹"}, {"measurement": "kon", "setting": "[1]", "result": 805000, "unit": "M⁻¹ s⁻¹"}, {"measurement": "EC50", "setting": "[4]", "result": 0.417, "unit": "nM"}, {"measurement": "IC50 (read off the curve)", "setting": "[5]", "result": 0.1, "unit": "nM"}]}, {"binder": "B4", "values": [{"measurement": "Kd", "setting": "[1]", "result": 0.423, "unit": "nM"}, {"measurement": "koff", "setting": "[1]", "result": 0.000298, "unit": "s⁻¹"}, {"measurement": "kon", "setting": "[1]", "result": 704000, "unit": "M⁻¹ s⁻¹"}, {"measurement": "IC50", "setting": "SIRPα-His protein [6]", "result": 0.11, "unit": "nM"}, {"measurement": "EC50", "setting": "[4]", "result": 0.54, "unit": "nM"}, {"measurement": "IC50 (read off the curve)", "setting": "[5]", "result": 0.1, "unit": "nM"}]}, {"binder": "B5", "values": [{"measurement": "IC50", "setting": "SIRPα-His protein [6]", "result": 0.14, "unit": "nM"}]}, {"binder": "B6", "values": [{"measurement": "IC50", "setting": "SIRPα-His protein [6]", "result": 0.092, "unit": "nM"}]}, {"binder": "B7", "values": [{"measurement": "IC50", "setting": "SIRPα-His protein [6]", "result": 0.11, "unit": "nM"}]}, {"binder": "B8", "values": [{"measurement": "IC50", "setting": "SIRPα-His protein [6]", "result": 0.12, "unit": "nM"}]}, {"binder": "B9", "values": [{"measurement": "IC50", "setting": "SIRPα-His protein [6]", "result": 0.14, "unit": "nM"}]}, {"binder": "B10", "values": [{"measurement": "IC50", "setting": "SIRPα-His protein [6]", "result": 0.16, "unit": "nM"}]}, {"binder": "B11", "values": [{"measurement": "IC50", "setting": "SIRPα-His protein [6]", "result": 0.145, "unit": "nM"}]}, {"binder": "B12", "values": [{"measurement": "IC50", "setting": "SIRPα-His protein [6]", "result": 0.13, "unit": "nM"}]}, {"binder": "B13", "values": [{"measurement": "IC50", "setting": "SIRPα-His protein [6]", "result": 0.13, "unit": "nM"}]}, {"binder": "B14", "values": [{"measurement": "IC50", "setting": "SIRPα-His protein [6]", "result": 0.21, "unit": "nM"}]}, {"binder": "B15", "values": [{"measurement": "IC50", "setting": "SIRPα-His protein [6]", "result": 0.16, "unit": "nM"}]}, {"binder": "B16", "values": [{"measurement": "IC50", "setting": "SIRPα-His protein [6]", "result": 0.23, "unit": "nM"}]}, {"binder": "B17", "values": [{"measurement": "IC50", "setting": "SIRPα-His protein [6]", "result": 0.21, "unit": "nM"}]}, {"binder": "B18", "values": [{"measurement": "IC50", "setting": "SIRPα-His protein [6]", "result": 0.16, "unit": "nM"}]}]}
